Experiment [1] has as its target human Gas6 recombinant protein (human) (UniProt Q14393). Kind of experiment: ELISA, plate-coated test molecule, serially diluted hGas6. (In an ELISA, binding on a coated surface is turned into a signal by an enzyme label.)
In experiment [2] the target is PD-L1 on PD-L1 aAPC/CHO-K1 cells (human) (UniProt Q9NZQ7). In words: cell-based or functional assay.
In experiment [3] the target is Recombinant human PD-L1 protein (human) (UniProt Q9NZQ7). Kind of experiment: ELISA, plate-coated recombinant human PD-L1, anti-human IgG-HRP.

The EC50 is the concentration that produces a half-maximal response.

Chain of UniProt Q14393 (Q14393 49-678 limits assumed): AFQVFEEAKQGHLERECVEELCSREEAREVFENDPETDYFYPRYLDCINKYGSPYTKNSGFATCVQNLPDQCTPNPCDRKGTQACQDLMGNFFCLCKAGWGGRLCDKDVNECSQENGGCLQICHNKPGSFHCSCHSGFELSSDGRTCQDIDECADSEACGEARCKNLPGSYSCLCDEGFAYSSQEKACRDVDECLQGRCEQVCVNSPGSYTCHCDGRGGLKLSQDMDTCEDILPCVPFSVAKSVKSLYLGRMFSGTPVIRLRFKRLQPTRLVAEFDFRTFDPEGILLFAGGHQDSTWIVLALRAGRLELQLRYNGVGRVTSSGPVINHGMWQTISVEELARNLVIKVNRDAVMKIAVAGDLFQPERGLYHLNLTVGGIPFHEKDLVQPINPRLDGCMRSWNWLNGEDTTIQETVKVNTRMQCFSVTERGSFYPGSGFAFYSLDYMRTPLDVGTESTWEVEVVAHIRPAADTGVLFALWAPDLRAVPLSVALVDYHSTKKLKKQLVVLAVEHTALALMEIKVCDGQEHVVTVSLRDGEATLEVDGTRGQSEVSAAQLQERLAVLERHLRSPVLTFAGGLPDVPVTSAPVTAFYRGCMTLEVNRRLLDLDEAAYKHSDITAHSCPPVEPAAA

Take Axl-Fc (Fc fusion): the EC50 in experiment [1] was under 3 nM.

B1: example_7 (protein, part only; not given: Fc, Gas6 trap, linkers, not shown: small tags and cut ends)
chain, part: EVQLQESGPGLVKPSQTLSLTCTVSGYSITSDYWNWIRKPPGKGLEYMGYISYTGSTYYNPSLKSRITISRDTSKNQYSLKLSSVTAADTAVYYCARRGEWLSPFAYWGQGTLVTVSSDIQMTQSPSSLSASVGDRVTITCKSSQSLLYSSNQKNSLAWYQQKPGKAPKLLIYWASTRESGVPSRFSGSGSGTDFTLTISSLQPEDFATYYCQQYYTYPFTFGQGTKLEIK
In experiment [2], B1 returned a PD-L1/PD-1 blockade assay, EC50 (luciferase in PD-1 effector cells) of under 3 nM. Further, the half-maximal effective concentration (EC50) in experiment [3] was under 0.1 nM.

B2: example_8 (protein, part only; not given: Fc, Gas6 trap, linkers, not shown: small tags and cut ends)
chain, part: EVQLQESGPGLVKPSQTLSLTCTVSGYSITSDYWDWIRKPPGKGLEYMGYISYTGSTYYNPSLRSRITISRDTSKNQYSLKLSSVTAADTAVYYCARRGGWLSPFVYWGQGTLVTVSSDIQMTQSPSSLSASVGDRVTITCKSRQSLLFSSNQKNSLAWYQQKPGKAPKLLIYWASTRESGVPSRFSGSGSGTDFTLTISSLQPEDFATYYCQQYYTYPFTFGQGTKLEIK
B2 returned a PD-L1/PD-1 blockade assay, EC50 (luciferase in PD-1 effector cells) in experiment [2] of under 3 nM. Besides, the EC50 in experiment [3] is under 0.1 nM.

B3: example_3 (protein, part only; not given: constant regions, Gas6 trap, linker, not shown: a dimerising Fc or GST; small tags and cut ends)
heavy, part: EVQLQESGPGLVKPSQTLSLTCTVSGYSITSDYWNWIRKPPGKGLEYMGYISYTGSTYYNPSLKSRITISRDTSKNQYSLKLSSVTAADTAVYYCARRGEWLSPFAYWGQGTLVTVSS
light: DIQMTQSPSSLSASVGDRVTITCKSSQSLLYSSNQKNSLAWYQQKPGKAPKLLIYWASTRESGVPSRFSGSGSGTDFTLTISSLQPEDFATYYCQQYYTYPFTFGQGTKLEIK
On to B3, for which the PD-L1/PD-1 blockade assay, EC50 (luciferase in PD-1 effector cells) in experiment [2] is under 3 nM. Further, the EC50 in experiment [3] was under 0.1 nM.

B4: example_5 (protein, part only; not given: constant regions, Gas6 trap, linker, not shown: a dimerising Fc or GST; small tags and cut ends)
heavy, part: EVQLQESGPGLVKPSQTLSLTCTVSGYSITSDYWDWIRKPPGKGLEYMGYISYTGSTYYNPSLRSRITISRDTSKNQYSLKLSSVTAADTAVYYCARRGGWLSPFVYWGQGTLVTVSS
light: DIQMTQSPSSLSASVGDRVTITCKSRQSLLFSSNQKNSLAWYQQKPGKAPKLLIYWASTRESGVPSRFSGSGSGTDFTLTISSLQPEDFATYYCQQYYTYPFTFGQGTKLEIK
On to B4, for which the PD-L1/PD-1 blockade assay, EC50 (luciferase in PD-1 effector cells) in experiment [2] was under 3 nM. Moreover, in experiment [3], the EC50 is under 0.1 nM.

(Values after patent US20240218337A1.)
